Results from article PMC13430412.

How the values were obtained:
[1] = biological target: Rab7A(Q67L)-6xHis (human) (UniProt P51149); test: liposome co-flotation; purified VPS13C constructs with SUVs (5% DGS-NTA) bearing His-tagged protein, 1 mM GTP, 2 mM Mg2+, room temperature 20 min; OptiPrep gradient, top fraction by SDS-PAGE
[2] = biological target: Strep-tagged Rab7A (Q67L) (human) (UniProt P51149); test: pull-down; Strep-Rab7A(Q67L) and FLAG-tagged VPS13C constructs co-expressed in Expi293F; lysate (buffer A with 1 mM GTP, 2 mM MgCl2) on Strep-Tactin XT resin, eluted with biotin; SDS-PAGE with Coomassie and/or anti-FLAG western blot
Strep-tagged Rab7A (Q67L) (human), sequence (P51149 whole entry Q67L): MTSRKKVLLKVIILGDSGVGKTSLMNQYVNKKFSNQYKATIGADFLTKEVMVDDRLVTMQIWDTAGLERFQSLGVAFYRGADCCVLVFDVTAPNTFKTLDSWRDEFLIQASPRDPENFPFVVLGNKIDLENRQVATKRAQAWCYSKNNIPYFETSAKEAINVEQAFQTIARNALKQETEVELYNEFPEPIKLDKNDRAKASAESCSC

Rab7A(Q67L)-6xHis (human), sequence (P51149 whole entry Q67L): as above

fraction co-floated with SUVs bearing His-tagged Rab7A [1] [%] | fraction of total overexpressed VPS13 retained [2] [%] | Substance
> 80 | – | VPS13C-ΔATG2C-3xFLAG, Q709C8 1-3753
– | 5 | VPS13C-3XFLAG (full-length human VPS13C with a C-terminal 3xFLAG tag), Q709C8 1-3753
